For test [1], the target named is catalytic domain of membrane-type 1 MMP (MMP-14(CD)). The test can be described thus: Enzyme inhibition kinetic study, MMP-14. The test is classed as biochemical. Conditions: Table I; enzyme 5 nM; pH 7.5; read-out: Ki(app) MMP-14(CD). As to the method: FIG. 2. Inhibition of MMP and TACE by N-TIMP-3 and its mutants. A. Inhibition of MMP-14(CD) by wild-type and mutated N-TIMP-3. Open circles, wild-type N-TIMP-3; closed circles, T2G; and open squares, -1A. B. Comparison of the inhibition of TACE by wild-type N-TIMP-3, N-TIMP-1 and TAPI-2. The inhibitors were incubated with 0.5 nM TACE for 3 hr at room temperature, and the residual enzyme activity was measured with 10 μM Substrate III (R&D Systems). The assays were performed at pH 9.0 at a final NaCl concentration of 1 mM. Open circles, N-TIMP-3; closed circles, TAPI-2; and open squares, N-TIMP-1. C. Inhibition of TACE (0.5 nM) by wild-type and mutated N-TIMP-3. Open circles, wild-type inhibitor; closed circles, T2G; and open squares, -1A.
Enzyme inhibition kinetic studies—Inhibition kinetic studies for MMPs and TACE were carried out as described previously (19, 27) with modifications. Purified N-TIMP-3 and mutants were dialyzed against 20 mM Tris-HCl (pH 7.0), 50 mM NaCl containing 20% glycerol, centrifuged at 14,000 rpm for 10 min to remove any precipitate, and protein concentration was re-measured before conducting inhibition assays. […]
where v is the experimentally determined reaction velocity, v0 is the uninhibited activity, E is enzyme concentration, I is inhibitor concentration, K is the apparent inhibition constant (Ki^(app)) and h is the Hill coefficient. […]

For test [2] the target is unchanged. To be noted: Table I; data taken from ref. 27; read-out: Ki(app) MMP-14(CD); cited from earlier work.
The test system of test [3] is aggrecanase activity in IL-1α- and retinoic acid-stimulated cartilage. The test can be described thus: Aggrecanase-generated aggrecan fragments in cartilage conditioned media, Western analysis. The test is classed as cell-based. Conditions: IL-1α- and retinoic acid-stimulated cartilage. The text has this: Aggrecan fragments released into the conditioned medium are deglycosylated by digestion with chondroitinase ABC and keratanase and the samples are subjected to SDS/PAGE and Western blotting analysis as described by Little et al.. The primary antibodies used to detect aggrecanase-generated and MMP-generated aggrecan fragments are BC-3 and BC-14, respectively. Antigen-antibody complexes are detected by anti-mouse AP-linked donkey antibody and the AP substrate.
Conditioned media from the above experiments were analyzed by monoclonal antibodies that recognize either the aggrecanase-generated aggrecan neoepitope ARGSV or the MMP-generated aggrecan neoepitope FFGVG. In concordance with GAG release, there was an increase in the amount of aggrecanase-generated aggrecan fragments released upon treatment with either stimulus, but no MMP-generated fragments were detected.

In test [4] the target is T1, full-length collagenase 1 (MMP-1) (Homo sapiens, UniProt P03956).
T1 construct: full-length collagenase 1 (MMP-1)
T1 sequence (P03956 100-469): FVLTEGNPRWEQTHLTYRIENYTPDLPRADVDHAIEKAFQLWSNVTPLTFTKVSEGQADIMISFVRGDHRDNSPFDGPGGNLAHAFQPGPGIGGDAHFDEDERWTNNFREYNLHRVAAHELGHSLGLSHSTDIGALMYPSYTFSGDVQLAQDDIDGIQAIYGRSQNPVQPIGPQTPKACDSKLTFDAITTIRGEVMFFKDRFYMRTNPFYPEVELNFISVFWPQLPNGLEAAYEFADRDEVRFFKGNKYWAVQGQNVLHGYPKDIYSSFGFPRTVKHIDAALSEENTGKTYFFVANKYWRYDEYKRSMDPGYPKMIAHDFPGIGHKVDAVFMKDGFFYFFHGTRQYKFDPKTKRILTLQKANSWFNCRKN
To be noted: Table I; data taken from ref. 8; read-out: Ki(app) MMP-1; cited from earlier work.

A further test concerns the target T2, gelatinase A (MMP-2) (Homo sapiens, UniProt P08253).
T2 sequence (P08253 110-660): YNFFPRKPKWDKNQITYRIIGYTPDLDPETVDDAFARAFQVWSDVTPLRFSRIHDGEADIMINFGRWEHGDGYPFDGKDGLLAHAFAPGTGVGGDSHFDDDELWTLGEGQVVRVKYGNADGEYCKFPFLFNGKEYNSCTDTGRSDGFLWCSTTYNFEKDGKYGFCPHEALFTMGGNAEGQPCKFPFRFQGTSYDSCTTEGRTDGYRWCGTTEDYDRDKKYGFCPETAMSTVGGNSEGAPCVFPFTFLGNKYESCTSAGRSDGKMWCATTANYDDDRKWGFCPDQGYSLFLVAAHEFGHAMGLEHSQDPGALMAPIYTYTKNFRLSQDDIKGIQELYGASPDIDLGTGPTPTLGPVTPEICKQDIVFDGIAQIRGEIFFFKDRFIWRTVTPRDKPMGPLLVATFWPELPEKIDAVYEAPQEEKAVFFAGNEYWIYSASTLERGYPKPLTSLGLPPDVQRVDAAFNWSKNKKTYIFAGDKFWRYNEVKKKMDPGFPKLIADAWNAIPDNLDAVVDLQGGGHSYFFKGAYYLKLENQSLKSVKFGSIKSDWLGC
Conditions: Table I; data taken from ref. 8; read-out: Ki(app) MMP-2; cited from earlier work.

Like-named read-outs stand apart in the source and are kept apart here.

B1: -1A: N-TIMP-3 mutant with the addition of an N-terminal alanine extension (-1A) (protein)
chain: ACTCSPSHPQDAFCNSDIVIRAKVVGKKLVKEGPFGTLVYTIKQMKMYRGFTKMPHVQYIHTEASESLCGLKLEVNKYQYLLTGRVYDGKMYTGLCNFVERWDQLTLSQRKGLNYRYHLGCN
Regarding B1, the Ki in test [1] came out at 941 ± 206 nM.

B2: N-TIMP-3: N-terminal inhibitory domain of TIMP-3 (residues 1 to 121), C-terminally His-tagged, wild-type (protein)
chain: CTCSPSHPQDAFCNSDIVIRAKVVGKKLVKEGPFGTLVYTIKQMKMYRGFTKMPHVQYIHTEASESLCGLKLEVNKYQYLLTGRVYDGKMYTGLCNFVERWDQLTLSQRKGLNYRYHLGCN
As for B2, the Ki in test [2] is 0.8 ± 0.03 nM; in test [4], 1.2 ± 0.5 nM; with gelatinase A (MMP-2), 4.3 ± 0.5 nM. The “Release of aggrecanase-generated aggrecan fragments” value in test [3] (0.05 μM) is on record as “partially inhibited”; in test [3] (0.1 μM), “completely blocked”.
